Results on 63 sequences are retold here after the supplement of paper PMC7877785.

A short description of the data set: self-splicing fitness, log relative to wild type (ln ratio); higher = more splicing; Tetrahymena group I intron in knt gene, E. coli kanamycin selection, DiMSum; sequences stand for … in CUCUCU…GGAGGGAAAAGUUAUCAGGCAUGCACCUGGUAGCUAGUCUUUAAACCAAUAGAUUGCAUCGGUUUAAAAGGCAAGACCGUCAAAUUGCGGGAAAGGGGUCAACAGCCGUUCAGUACCAAGUCUCAGGGGAAACUUUGAGAUGGCCUUGCAAAGGGUAUGGUAAUAAGCUGACGGACAUGGUCCUAACCACGCAGCCAAGUCCUAAGUCAACAGAUCUUCUGUUGAUAUGGAUGCAGUUCACAGACUAAAUGUCGGUCGGGGAAGAUGUAUUCUUCUCAUAAGAUAUAGUCGGACCUCUCCUUAAUGGGAGCUAGCGGAUGAAGUGAUGCAACACUGGAGCCGCUGGGAACUAAUUUGUAUGCGAAAGUAUAUUGAUUAGUUUUGGAGUACUCGUGGUCG
The method, boiled down:
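Fitness was computed with DiMSum as the error-weighted combination of replicate fold changes, kanamycin versus none, each normalised to wild type. The library randomised all eight intron nucleotides of the P1ex region, with the intron placed in the knt kanamycin-resistance gene on pET-22b(+) in E. coli BL21(DE3). Six replicate transformations were grown overnight at 37°C or 30°C on LB agar with or without 25 μg/mL kanamycin, plus 100 μg/mL carbenicillin, 50 μM IPTG and 0.2% rhamnose. Pooled colonies were amplicon-sequenced on an Illumina HiSeq 2500.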

± gives the uncertainty stated by the source.

Consider GCUUAGCAAUAUUACGUAUU, for which the “self-splicing fitness (ln)” value is, setting by setting: (30 °C) -0.48 ± 0.12; (37 °C) 0.669 ± 0.15.

On to AUAUAGCAAUAUUACGCAGC, for which the “self-splicing fitness (ln)” value is -3.62 ± 0.43 (30 °C) and -1.92 ± 0.27 (37 °C). Consider CUCUAGCAAUAUUACGAACC, for which, for the setting “30 °C”, the “self-splicing fitness (ln)” value was -3.06 ± 0.37. As for UCUGAGCAAUAUUACGUGAC, the “self-splicing fitness (ln)” value was -2.99 ± 0.2 (30 °C) and -2.97 ± 0.27 (37 °C). For GCACAGCAAUAUUACGCUUG the same measures were -2.89 ± 0.12 and -1.39 ± 0.11.

Take CCGUAGCAAUAUUACGCCUU: the “self-splicing fitness (ln)” value (30 °C) is -3.08 ± 0.44 and the “self-splicing fitness (ln)” value (37 °C) was -2.19 ± 0.31. For GCUCAGCAAUAUUACGCAUU the same measures were -0.452 ± 0.078 and -0.0385 ± 0.1.

For CAUAAGCAAUAUUACGUCCU, the “self-splicing fitness (ln)” value (30 °C) was -3.78 ± 0.27 and the “self-splicing fitness (ln)” value (37 °C) was -3.15 ± 0.19.

Consider UAGGAGCAAUAUUACGAAAA, for which the “self-splicing fitness (ln)” value was -3.01 ± 0.45 (30 °C) and -1.65 ± 0.41 (37 °C).

Take UAUGAGCAAUAUUACGCGUU: the “self-splicing fitness (ln)” value runs as follows: (30 °C) -4.08 ± 0.36; (37 °C) -1.79 ± 0.24. UUUGAGCAAUAUUACGAAAU: the “self-splicing fitness (ln)” value by setting is: (30 °C) -3.72 ± 0.2; (37 °C) -2.09 ± 0.17.

Turning to UUAAAGCAAUAUUACGUUCA, the “self-splicing fitness (ln)” value turned out to be 0.284 ± 0.087 (30 °C) and 0.233 ± 0.12 (37 °C). As for UGUGAGCAAUAUUACGCGUG, the “self-splicing fitness (ln)” value is, setting by setting: (30 °C) -1.92 ± 0.11; (37 °C) -1.75 ± 0.11. For CCGAAGCAAUAUUACGUGUA the same measures were -4.03 ± 0.22 and -2.81 ± 0.19. For CCUGAGCAAUAUUACGGUAG the same measures were -3.11 ± 0.2 and -2.26 ± 0.2. For the sequence CCAUAGCAAUAUUACGGGCC, the “self-splicing fitness (ln)” value (37 °C) is -1.32 ± 0.23.

Consider UGAAAGCAAUAUUACGUCAC, for which the “self-splicing fitness (ln)” value is, setting by setting: (30 °C) -3.83 ± 0.47; (37 °C) -2.2 ± 0.27. For the sequence GUAGAGCAAUAUUACGUUAA, the “self-splicing fitness (ln)” value runs as follows: (30 °C) -2 ± 0.17; (37 °C) -0.228 ± 0.21. GCUGAGCAAUAUUACGCCGC: the “self-splicing fitness (ln)” value (30 °C) was -2.62 ± 0.34. CCCAAGCAAUAUUACGGUAA: the “self-splicing fitness (ln)” value is -2.25 ± 0.14 (30 °C) and -1.4 ± 0.16 (37 °C). For AGCUAGCAAUAUUACGGUCU the same measures were -0.425 ± 0.068 and 0.136 ± 0.088. For AAGUAGCAAUAUUACGGUAC the same measures were -2.65 ± 0.18 and -1.75 ± 0.18. For UGGAAGCAAUAUUACGGCCG the same measures were -0.385 ± 0.18 and -0.0898 ± 0.3. On to CCGUAGCAAUAUUACGUUGC, for which the “self-splicing fitness (ln)” value is -3.53 ± 0.28 (30 °C) and -2.04 ± 0.43 (37 °C).

Regarding CUUCAGCAAUAUUACGGAGA, the “self-splicing fitness (ln)” value is, setting by setting: (30 °C) -3.47 ± 0.21; (37 °C) -3.04 ± 0.19.

Regarding GCCUAGCAAUAUUACGGGCU, the “self-splicing fitness (ln)” value (30 °C) is -3.65 ± 0.23 and the “self-splicing fitness (ln)” value (37 °C) was -2.07 ± 0.24. Consider GCGCAGCAAUAUUACGGCGA, for which the “self-splicing fitness (ln)” value (30 °C) was -0.0713 ± 0.075 and the “self-splicing fitness (ln)” value (37 °C) was -0.173 ± 0.089. For CAAGAGCAAUAUUACGGAGA the same measures were -2.57 ± 0.28 and -1.91 ± 0.22. Regarding CUGAAGCAAUAUUACGAGUC, the “self-splicing fitness (ln)” value is, setting by setting: (30 °C) -3.88 ± 0.19; (37 °C) -2.16 ± 0.21. Regarding CAGGAGCAAUAUUACGCCUC, the “self-splicing fitness (ln)” value (30 °C) was -2.08 ± 0.23. In the case of CGAAAGCAAUAUUACGCGUC, the “self-splicing fitness (ln)” value (37 °C) was -0.242 ± 0.19. With AUUGAGCAAUAUUACGGACG, the “self-splicing fitness (ln)” value is -2.11 ± 0.3 (30 °C) and -1.96 ± 0.32 (37 °C). Regarding GAAUAGCAAUAUUACGGCUU, the “self-splicing fitness (ln)” value (30 °C) stood at 0.268 ± 0.075 and the “self-splicing fitness (ln)” value (37 °C) was determined as 0.303 ± 0.11. Regarding GACCAGCAAUAUUACGAGUG, the “self-splicing fitness (ln)” value is, setting by setting: (30 °C) -0.669 ± 0.055; (37 °C) -0.33 ± 0.084. Consider AAAUAGCAAUAUUACGCCAG, for which the “self-splicing fitness (ln)” value (30 °C) is -2.53 ± 0.24 and the “self-splicing fitness (ln)” value (37 °C) is -2.09 ± 0.42. For UACAAGCAAUAUUACGUAAA the same measures were -2.45 ± 0.073 and -1.38 ± 0.087. For CUAGAGCAAUAUUACGCUUG the same measures were -3.03 ± 0.21 and -1.83 ± 0.23. For GAUCAGCAAUAUUACGUUUC the same measures were -2.26 ± 0.12 and -0.791 ± 0.1. For CGAGAGCAAUAUUACGGAGA, the “self-splicing fitness (ln)” value (30 °C) was -2.61 ± 0.26. On to GAUCAGCAAUAUUACGUGUG, for which the “self-splicing fitness (ln)” value was -0.908 ± 0.044 (30 °C) and -0.101 ± 0.06 (37 °C). Turning to AAACAGCAAUAUUACGGCUU, the “self-splicing fitness (ln)” value by setting is: (30 °C) -0.312 ± 0.052; (37 °C) 0.129 ± 0.07. Regarding UCGAAGCAAUAUUACGACUA, the “self-splicing fitness (ln)” value runs as follows: (30 °C) -1.05 ± 0.16; (37 °C) -0.97 ± 0.13. For CUGAAGCAAUAUUACGCUAG the same measures were -1.1 ± 0.096 and -0.802 ± 0.099. For ACUCAGCAAUAUUACGCGUC, the “self-splicing fitness (ln)” value (30 °C) was -3.42 ± 0.19 and the “self-splicing fitness (ln)” value (37 °C) was -2.06 ± 0.25. As for GCCGAGCAAUAUUACGCAAU, the “self-splicing fitness (ln)” value reads like this: (30 °C) -2.79 ± 0.2; (37 °C) -1.35 ± 0.15.

Turning to CUUAAGCAAUAUUACGCCUC, the “self-splicing fitness (ln)” value (30 °C) is -1.85 ± 0.22. As for UACAAGCAAUAUUACGUUCU, the “self-splicing fitness (ln)” value was -1.28 ± 0.12 (30 °C) and -0.681 ± 0.12 (37 °C). CACAAGCAAUAUUACGACAU: the “self-splicing fitness (ln)” value reads like this: (30 °C) -3.32 ± 0.017; (37 °C) -1.99 ± 0.033. For GCACAGCAAUAUUACGGGAA the same measures were -1.47 ± 0.15 and -1.42 ± 0.13.

Regarding UGUGAGCAAUAUUACGGGCC, the “self-splicing fitness (ln)” value (30 °C) is -3 ± 0.31 and the “self-splicing fitness (ln)” value (37 °C) is -3.45 ± 0.39. For CUUGAGCAAUAUUACGCUAA the same measures were -4.05 ± 0.31 and -3.36 ± 0.35.

As to UCCAAGCAAUAUUACGUCGG, the “self-splicing fitness (ln)” value runs as follows: (30 °C) -1.11 ± 0.074; (37 °C) -0.182 ± 0.091. For AAGUAGCAAUAUUACGACUA the same measures were -0.0153 ± 0.098 and 0.0263 ± 0.13. For AGGUAGCAAUAUUACGUCGG the same measures were -2.803 ± 0.022 and -1.63 ± 0.036. In the case of ACUAAGCAAUAUUACGAAAC, the “self-splicing fitness (ln)” value was -3.55 ± 0.12 (30 °C) and -2.3 ± 0.16 (37 °C). Regarding AGAGAGCAAUAUUACGGGGU, the “self-splicing fitness (ln)” value (37 °C) is -2.65 ± 0.26. Consider GUCGAGCAAUAUUACGGGAG, for which the “self-splicing fitness (ln)” value is, setting by setting: (30 °C) -3.67 ± 0.21; (37 °C) -2.4 ± 0.2. As to UGUUAGCAAUAUUACGCCCC, the “self-splicing fitness (ln)” value (37 °C) amounted to 0.337 ± 0.48. With AAUAAGCAAUAUUACGGGCU, the “self-splicing fitness (ln)” value is, setting by setting: (30 °C) -1.54 ± 0.14; (37 °C) -1.6 ± 0.14. For ACCUAGCAAUAUUACGUAUC the same measures were -2.83 ± 0.083 and -1.85 ± 0.1. For GUCUAGCAAUAUUACGUACC the same measures were -0.591 ± 0.29 and -0.721 ± 0.3.

With UCGAAGCAAUAUUACGAGCG, the “self-splicing fitness (ln)” value (30 °C) is -1.04 ± 0.078 and the “self-splicing fitness (ln)” value (37 °C) was -0.114 ± 0.094.

For the sequence ACUAAGCAAUAUUACGAGCC, the “self-splicing fitness (ln)” value is -3.72 ± 0.4 (30 °C) and -1.62 ± 0.33 (37 °C).
